Consider 18 molecules from US7423017B2, “Method for treating cartilage disorders” (Genentech, Inc., priority 1997, dated 2008).

Positions of bridges follow the written chain, without caps; N, C: chain ends. Residues, ends and D or L forms follow the SMILES beside them. No end group written: not given here.

Experiment [1] addresses T1, IGFBP-3 (Homo sapiens, UniProt P17936).
T1 construct: made in house
In words: BIACORE competition assay: IGFBP-3 binding to immobilized IGF-1. As to conditions: for IC50 (mut) / IC50 (wt): IGF-1 inhibition, wt = BP3-01-ox. As for the experimental part: IGF-1 was immobilized on a dextran chip for inhibition assays using a BIACORE™ 2000 surface-plasmon-resonance device (BIAcore, Inc., Piscataway, N.J.) to measure free binding protein. IGF-1 was biotinylated as described above, and injected over a chip to which streptavidin had been coupled (BIAcore, Inc.) to give 400 to 800 RU (response units) of immobilized IGF-1. […] Serial dilutions of peptide were mixed with a constant concentration (40 nM) of IGFBP-3. After incubation for >1 hour at room temperature, an aliquot of 20 μL was injected at a flow rate of 20 μL/min over the IGF-1 chip. Following the injection, a response reading was taken to measure the relative amount of IGFBP-3 bound to the IGF-1.
A general note: In SPR one partner is held on a chip, and binding of the other changes the refractive index at the surface.

The target of experiment [2] is T2, IGFBP-1 (Homo sapiens, UniProt P08833).
T2 sequence (P08833 26-259): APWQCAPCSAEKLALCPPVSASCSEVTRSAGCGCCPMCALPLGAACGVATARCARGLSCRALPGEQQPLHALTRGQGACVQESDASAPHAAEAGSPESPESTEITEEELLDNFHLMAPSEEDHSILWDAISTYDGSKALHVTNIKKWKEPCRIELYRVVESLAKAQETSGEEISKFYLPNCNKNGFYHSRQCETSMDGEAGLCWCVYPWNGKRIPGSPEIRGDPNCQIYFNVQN
In words: BIACORE kinetics: IGFBP-1 binding to immobilized IGF-1 variants. Details: made in house; host or cells: CHO cells. To be noted: Table XVI; Y31C immobilized via disulfide linkage. As for the experimental part: The binding affinities of the IGF variants for IGFBP-1 and IGFBP-3 were determined using a BIACORE™-2000 real time kinetic interaction analysis system (Biacore, Inc., Piscataway, N.J.) to measure association (ka) and dissociation (kd) rates. Carboxymethylated dextran biosensor chips (CM5, BIAcore Inc.) were activated with EDC (N-ethyl-N′-(3-dimethylaminopropyl)-carbodiimide hydrochloride) and NHS(N-hydroxysuccinimide) according to the supplier's instructions. For immobilization, IGF mutants in 20 mM sodium acetate, pH 4.8, were injected onto the biosensor chip at a concentration of 50 μg/ml to yield approximately 450-600 RU's (resonance-responce units) of covalently-coupled protein. Unreacted groups were blocked with an injection of 1 M ethanolamine. Kinetic measurements were carried out by injecting two-fold serial dilutions (starting at 1 μM) of either IGFBP-1 or IGFBP-3 in running buffer (PBS, 0.05% TWEEN 20™, 0.1% ovalbumin, 0.1% sodium azide) at 25 °C using a flow rate of 20 μl/min. Association rates (ka) and dissociation rates (kd) were calculated separately using a 1:1 Langmuir™ association model in the BIACORE™ evaluation software v. 3.0. The equilibrium dissociation constant (KD) was calculated as kd/ka.
For measurements of IGFBP-1 binding to IGF-1, kinetics experiments were conducted using a single-cysteine IGF-1 variant, Y31C, that was immobilized onto the sensor chip surface via a disulfide linkage (BIACORE™ System Manual Supplement, 5a-1, Pharmacia (1991)).

In experiment [3] the target is T2, IGFBP-1. In words: competitive phage ELISA of IGF-1 mutants, IGFBP-1. In kind it is binding. The arrangement: made in house; host or cells: CHO cells. To be noted: for increase in IGFBP-1 binding: phage ELISA. The method, then: (§1) An alanine-scanning mutagenesis approach (Cunningham and Wells, Science, 244: 1081-1085 (1989); U.S. Pat. No. 5,834,250) was used to remove that portion of each side chain of IGF-1 beyond the beta carbon. The contribution of these atoms to the free energy of binding of the IGF-1 analog to IGFBP-1 or to IGFBP-3 was then assessed by competitive phage ELISA. In this assay, IGFBP-1 or IGFBP-3 is used to inhibit IGF-phage mutants from binding to an IGFBP-1- or IGFBP-3-coated immunosorbant plate.
(§2) Immunosorbent plates (Nunc, MAXISORP™, 96 wells) were coated with 100 μl/well of 1 μg/ml IGFBP-1 or IGFBP-3 in PBS buffer pH 7.2 at 4° C. overnight. The plates were then blocked with 0.5% TWEEN 20™/PBS (also used as binding buffer) for 2 hours at room temperature (proteinaceous blocking agents like bovine serum albumin were avoided to prevent potential IGF or IGFBP contamination). E. coli cells (XL1-Blue, Stratagene) freshly transformed with phagemid vector were grown overnight in 5 mL 2YT medium (Sambrook et al., supra) in the presence of M13-VCS helper phage (Stratagene). Phage particles were harvested and resuspended in PBS buffer as described in Lowman, H. B., “Phage Display of Peptide Libraries on Protein Scaffolds,” in Cabilly, S. (ed.), Combinatorial Peptide Library Protocols (Humana Press Inc.: Totowa, N.J., 1998), pp. 249-264. Then phage concentrations were normalized to yield a maximal ELISA signal of 0.2-0.4 for each mutant (Lowman, in Cabilly, S. (ed.), supra). Threefold serial dilutions of soluble competitor were prepared on non-absorbent microtiter plates (Nunc, F, 96 wells) with binding buffer (0.5% TWEEN 20™/PBS) containing phage at the previously determined concentrations. The dilution range of competitor protein extended over six orders of magnitude, starting at 5 μM for IGFBP-1 and 500 nM for IGFBP-3. After blocking, the plates containing immobilized target were washed with 0.05% TWEEN™/PBS buffer and subsequently incubated with 80 μl/well of the premixed phage-competitor solutions for 1 hour at room temperature. After washing, bound phage was detected with 80 μl/well of a solution containing a primary rabbit anti-phage polyclonal antibody and a secondary goat anti-rabbit monoclonal antibody-horseradish peroxidase conjugate in 0.5% TWEEN 20™/PBS. o-Phenylenediamine (Sigma) and tetramethylbenzidine (Kirkegaard and Perry) were used as chromogenic substrates, resulting in product detection at 492 and 450 nm, respectively. IC50 values were determined by fitting the binding data to a generic saturation curve (Lowman, in Cabilly, S. (ed.), supra). At least two individual clones of each IGF-1 mutant were assayed. Numbers in Table XIII represent mean±standard deviation of individually assessed IC50 values.

Experiment [4] addresses T1, IGFBP-3. In words: competitive phage ELISA of IGF-1 mutants, IGFBP-3. The format is binding. To be noted: for larger effects on IGFBP-3 than on IGFBP-1 binding: phage ELISA. The method, then:
as §1, §2
(In general: An ELISA detects its analyte on a solid surface through an enzyme-linked reagent.)

The test system of experiment [5] is IGFBP-1. As to the kind of experiment: competitive phage ELISA of IGF-1 mutants, IGFBP-1. The format is binding, human. As to conditions: relative IC50 IGFBP-1/relative IC50 IGFBP-3. The method, then:
as §1, §2

The mark [6] stands for this setting: phage display, soluble IGFBP-1 competitor.
Setting [7] is: phage display, soluble IGFBP-3 competitor.
Where [8] appears, read: IC50 mut/IC50 G1S-A70V, listed as Ala(1-3)-IGF-1.

T1 sequence (P17936 28-291): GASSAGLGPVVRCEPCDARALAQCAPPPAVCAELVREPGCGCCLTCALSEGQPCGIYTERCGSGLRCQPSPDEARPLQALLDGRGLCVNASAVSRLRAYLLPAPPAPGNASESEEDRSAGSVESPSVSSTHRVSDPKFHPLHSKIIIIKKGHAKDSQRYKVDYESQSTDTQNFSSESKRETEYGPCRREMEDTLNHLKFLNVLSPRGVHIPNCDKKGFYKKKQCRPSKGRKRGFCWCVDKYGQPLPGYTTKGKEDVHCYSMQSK

For the molecule `CC(C)C[C@@H]1NC(=O)[C@H](Cc2ccc(O)cc2)NC(=O)[C@H](Cc2c[nH]c3ccccc23)NC(=O)[C@H](CCC(=O)O)NC(=O)[C@H](C)NC(=O)[C@H](C(C)C)NC(=O)[C@@H]2CCCN2C(=O)[C@H](Cc2c[nH]c3ccccc23)NC(=O)[C@@H](N)CSSC[C@@H](C(=O)N[C@@H](CC(N)=O)C(=O)O)NC1=O` [BP3-25] (H-CWPVAEWYLCN-OH; disulfide 1-10; N-terminus and C-terminus assumed), at IGFBP-3 [1], the IC50 (in general, the concentration needed to halve the response being measured) stood at 46000 nM and the “IC50 (mut) / IC50 (wt)” value worked out at 23.
For `CSCC[C@H](NC(=O)[C@H](CC(N)=O)NC(=O)[C@@H]1CSSC[C@H](NC(=O)[C@@H](NC(=O)[C@H](CCC(=O)O)NC(=O)[C@H](CCC(=O)O)NC(=O)[C@H](CO)NC(=O)[C@H](C)N)C(C)C)C(=O)N[C@@H](Cc2c[nH]c3ccccc23)C(=O)N2CCC[C@H]2C(=O)N[C@@H](C(C)C)C(=O)N[C@@H](C)C(=O)N[C@@H](CCC(=O)O)C(=O)N[C@@H](Cc2c[nH]c3ccccc23)C(=O)N[C@@H](Cc2ccc(O)cc2)C(=O)N[C@@H](CC(C)C)C(=O)N1)C(=O)N[C@@H](Cc1c[nH]c2ccccc12)C(=O)NCC(=O)N[C@@H](CCCNC(=N)N)C(=O)O` [4D3.3P] (H-ASEEVCWPVAEWYLCNMWGR-OH; disulfide 6-15; N-terminus and C-terminus assumed) the same measures were 5600 nM and 2.8.
Turning to WPVAEWYLCN [BP3-24], the “IC50 (mut) / IC50 (wt)” value on IGFBP-3 [1] was more than 500.
For “Y31C: point mutant of IGF-1 with a single unpaired cysteinyl thiol for site-specific immobilization”, in the experiment with IGFBP-1 [2], the IGFBP-1 ka is 3.9 ± 0.4 ×10^4 M^−1 and the IGFBP-1 kd is given as 3.8 ± 0.1 ×10^−4 s^−1. For the same molecule, the “IGFBP-1 IC50” value in the experiment with IGFBP-1 [3] (setting [6]) was “wild-type-like affinities”. For the same molecule, the “IGFBP-3 IC50” value with IGFBP-3 [4] (setting [7]) is reported as “wild-type-like affinities”.
On IGFBP-3 [1], `CC[C@H](C)[C@@H]1NC(=O)[C@H](Cc2ccc(O)cc2)NC(=O)CNC(=O)[C@H](CCC(N)=O)NC(=O)[C@H](Cc2c[nH]cn2)NC(=O)[C@H](CCCNC(=N)N)NC(=O)[C@H](CC(=O)O)NC(=O)[C@H](Cc2c[nH]c3ccccc23)NC(=O)[C@@H](NC(=O)[C@@H](NC(=O)[C@H](CCC(=O)O)NC(=O)[C@H](Cc2c[nH]c3ccccc23)NC(=O)[C@H](C)N)C(C)C)CSSC[C@@H](C(=O)N[C@H](C(=O)N[C@H](C(=O)N[C@@H](CC(=O)O)C(=O)N[C@@H](CO)C(=O)O)[C@@H](C)O)[C@@H](C)O)NC1=O` [BP3-4D3.11DEL] (H-AWEVCWDRHQGYICTTDS-OH; disulfide 5-14; N-terminus and C-terminus assumed) showed an IC50 of 80000 nM.
Molecule D12A: IGF-1 single alanine mutant registered a relative specificity in the experiment with IGFBP-1 [5] of 0.3. In addition, the “increase in IGFBP-1 binding” value with IGFBP-1 [3] is listed as “approximately 2 fold”. Moreover, the results for the IC50 with IGFBP-1 [3] (setting [6]) and in the experiment with IGFBP-3 [4] (setting [7]) were 4.3 ± 0.8 nM and 1.49 ± 0.38 nM, respectively. Further, in the experiment with IGFBP-3 [4], the “larger effects on IGFBP-3 than on IGFBP-1 binding” value was “about 2 fold”.
Turning to G42A: IGF-1 single alanine mutant, the relative specificity in the experiment with IGFBP-1 [5] is 2.7. The IC50 with IGFBP-1 [3] (setting [6]) worked out at 15.7 ± 3.4 nM; in the experiment with IGFBP-3 [4] (setting [7]), 0.53 ± 0.2 nM.
Taken in the same sequence, the figures for G32A: IGF-1 single alanine mutant were 1.3, 10.9 ± 1.3 nM and 0.76 ± 0.28 nM.
Taken in the same sequence, the figures for L14A: IGF-1 single alanine mutant were 3.7, 36.7 ± 1.1 nM and 0.9 ± 0.04 nM.
Taken in the same sequence, the figures for P2A: IGF-1 single alanine mutant were 1.2, 11 ± 3.7 nM and 0.81 ± 0.18 nM.
Regarding D45A: IGF-1 single alanine mutant, in the experiment with IGFBP-1 [5], the relative specificity amounted to 0.6. For the same molecule, the “increase in IGFBP-1 binding” value in the experiment with IGFBP-1 [3] was “approximately 2 fold”. In addition, the 50% inhibitory concentration (IC50) with IGFBP-1 [3] (setting [6]) came to 4.7 ± 0.7 nM; in the experiment with IGFBP-3 [4] (setting [7]), 0.69 ± 0.21 nM. Besides, the “larger effects on IGFBP-3 than on IGFBP-1 binding” value with IGFBP-3 [4] is given as “about 2 fold”.
The molecule L54A: IGF-1 single alanine mutant had a relative specificity in the experiment on IGFBP-1 [5] of 1.2. Further, the IC50 stood at 23.1 ± 12 nM with IGFBP-1 [3] (setting [6]) and 1.83 ± 0.91 nM with IGFBP-3 [4] (setting [7]).
For G19A: IGF-1 single alanine mutant the same measures were 1.1, 11 ± 2.3 nM and 0.9 ± 0.28 nM.
V44A: IGF-1 single alanine mutant yielded a relative specificity in the experiment on IGFBP-1 [5] of 1.7. Moreover, the IC50 with IGFBP-1 [3] (setting [6]) was determined as 18.8 ± 5.4 nM; with IGFBP-3 [4] (setting [7]), 1.03 ± 0.06 nM.
Taken in the same sequence, the figures for E46A: IGF-1 single alanine mutant were 0.8, 7.9 ± 2.1 nM and 0.94 ± 0.28 nM.
For Q15A: IGF-1 single alanine mutant the same measures were 1.0, 13.9 ± 0.9 nM and 1.26 ± 0.41 nM.
Taken in the same sequence, the figures for R37A: IGF-1 single alanine mutant were 1.5, 12.3 ± 0.1 nM and 0.75 ± 0.08 nM.

B1: Ala(1-3)-IGF: triple alanine mutant substituting the first three N-terminal amino acids of IGF-1 (protein)
chain: AAATLCGAELVDALQFVCGDRGFYFNKPTGYGSSSRRAPQTGIVDECCFRSCDLRRLEMYCAPLKPAKSVSGGGSGSGDFDYEKMANANKGAMTENADENALQSDAKGKLDSVATDYGAAIDGFIGDVSGLANGNGATGDFAGSNSQMAQVGDGDNSPLMNNFRQYLPSLPQSVECRPFVFSAGKPYEFSIDCDKINLFRGVFAFLLYVATFMYVFSTFANILRNKES
Molecule B1 came in with a relative specificity with IGFBP-1 [5] of 7.3. In addition, the “IGFBP-1 Relative IC50” value in the experiment with IGFBP-1 [3] (setting [8]) was “decreased IGFBP-1 affinity similar to E3A”. For the same molecule, in the experiment with IGFBP-3 [4] (setting [8]), the “IGFBP-3 relative IC50” value is given as “no change in IGFBP-3 affinity”.
